In patent publication US11629364B2, “Methods for synthesizing anticoagulant polysaccharides” (OPTIMVIA, LLC, priority 2019, dated 2023):

Tests used:
[1] = 3OST activity: 3-O sulfated products detected by LCMS after lyase digestion; type: biochemical; details: for 3OST activity: N,2,3,6-HS products by MS and/or NMR: procedures of Example 5 and/or Example 6, expected; for abundance of 3-O sulfation in product: relative to the commercial heparin standard
Method: A study was conducted in accordance with embodiments of the present disclosure to confirm 3OST activity of enzymes comprising the amino acid sequence of SEQ ID NO: 24, SEQ ID NO: 26, or SEQ ID NO: 28 by detecting the presence of 3-O sulfated polysaccharide products as a result of their sulfotransfer reaction, using a reaction, using a similar LCMS procedure as in Example 3, except that the sulfo acceptor polysaccharide was commercially-available heparin (CAS code: 9041-08-1, available from Millipore Sigma). Even though the unmodified heparin contains ˜3.5% (w/w) of 3-O sulfated glucosamine residues, about ˜60% of the glucosamine residues are N,6-sulfated and are adjacent to a 2-O sulfated hexuronic acid residue, as in Formula X. Consequently, these N,6-sulfated glucosamine residues can still be 3-O sulfated.

[2] = NST activity: N-sulfated products detected by SAX-HPLC after lyase digestion; type: biochemical; details: procedures of Example 2; expected
Method: A study was conducted in accordance with embodiments of the present disclosure to confirm NST activity of enzymes comprising the amino acid sequence of SEQ ID NO: 2, SEQ ID NO: 4, SEQ ID NO: 6, SEQ ID NO: 8, SEQ ID NO: 10, or SEQ ID NO: 12 by detecting the presence of N-sulfated polysaccharide products formed as a result of their sulfotransfer reaction, using mass spectrometry (MS). Each engineered enzyme was purified according to the procedure of Example 1. Sulfotransferase activity was monitored in 100 μL reactions containing 50 μM of enzyme. To each purified protein solution, 20 mg of an aryl sulfate compound (either PNS or NCS) was dissolved in 2 mL of reaction buffer (50 mM IVIES pH 7.0, 2 mM CaCl2)), added to the protein solution, and incubated at 37° C. for 10 min. 2.5 mL of 2 mg/mL solution of N-deacetylated heparosan was added to protein/donor solution and incubated overnight at 37° C. The N-deacetylated heparosan was synthesized according to the protocol described in Balagurunathan, K. et al (eds.) (2015), Glycosaminoglycans: Chemistry and Biology, Methods in Molecular Biology, vol. 1229, DOI 10.1007/978-1-4939-1714-3_2, ©Springer Science+Business Media, New York, pp. 11-19 (section 3.1). To purify the N-sulfated product, the incubated reaction mixture was centrifuged the following day at 5,000×g for 10 min. The filter was washed once with 2 mL water, and centrifuged again. The filtrate was added to a 1K MWCO Dialysis membrane, dialyzed for 2 days in Milli-Q water, with water changes at 1 h, 2 h, 8 h, 16 h, 32 h, and then lyophilized.
The lyophilized N-sulfated products from each reaction were subsequently digested with a mixture of three carbon-oxygen lyases comprising the amino acid sequences of SEQ ID NO: 30, SEQ ID NO: 31, and SEQ ID NO: 32, which catalyze the β-eliminative cleavage of heparosan-based polysaccharides. Such lyases are available from New England Biolabs, among other chemical and biological commercial entities. 1 μL of each lyase was incubated with 50 μg of the lyophilized sulfated polysaccharide product and the provided digestion buffer, and incubated over 24 hours according to the packaged instructions provided by New England Biolabs with each lyase. After digestion, the lyase enzymes were inactivated by heating to 100° C. for 5 minutes. Samples were centrifuged at 14,000 rpm for 30 minutes before introduction to a strong anion exchange, high performance liquid chromatography (SAX) analysis. SAX analysis was performed on a Dionex Ultimate 3000 LC system interface. Separation was carried out on a 4.6×250 mm Waters Spherisorb analytical column with 5.0 μm particle size at 45° C. Mobile phase solution A was 2.5 mM sodium phosphate, pH 3.5, while mobile phase solution B was 2.5 mM sodium phosphate, pH 3.5, and 1.2 M Sodium perchlorate. After each sample was loaded onto the column, mobile phase solutions were applied to the column at a ratio of 98% mobile phase solution A and 2% mobile phase solution B for five minutes at a flow rate of 1.4 mL/min. After five minutes, a linear gradient of increasing mobile phase solution B was applied until the ratio of mobile phase solution A to mobile phase solution B was 50:50.

Molecule	3OST activity: N,2,3,6-HS products by MS and/or NMR [1]	NST activity: N-sulfated products by SAX [2]	other results
SEQ ID NO: 52: mutant of isoform 1 of the pig 3OST enzyme, SEQ ID NO: 24 mutations (protein, Amino acid sequence encoding for engineered arylsulfate-dependent 3-O-sulfotransferase variant 5) MGVAPNGSAQQLPQTIIIGVGHGGTRALLEMLSLHPDVAAAENEVHFFDWEEHYSHGLGWYLSQMPFSWPHQLTVEKTHSYFTSPKVPERVYSMNPSIRLLLILRDPSERVLSLGTHLFYVHMQKHKPYPSIEEFLVRDGRLNVDYTGLNRSLYHVHMQNWLRFFPLRHIHIVDGDRLIRDPFPEIQKVERFLKLSPQINASNFYFNKTKGFYCLRDSGRDRCLHESKGRAHPQVDPKLLNKLHEYFHEPNKKFFELVGRTFDWH	confirm the presence of N,2,3,6-HS products		
SEQ ID NO: 53: mutant of isoform 1 of the pig 3OST enzyme, SEQ ID NO: 26 mutations (protein, Amino acid sequence encoding for engineered arylsulfate-dependent 3-O-sulfotransferase variant 6) MGVAPNGSAQQLPQTIIIGVGHGGTRALLEMLSLHPDVAAAENEVHFFDWEEHYSHGLGWYLSQMPFSWPHQLTVEKTHSYFTSPKVPERVYSMNPSIRLLLILRDPSERVLSAYTHMFYNHMQKHKPYPSIEEFLVRDGRLNVDYTGLNRSLYHVHMQNWLRFFPLRHIHIVDGDRLIRDPFPEIQKVERFLKLSPQINASNFYFNKTKGFYCLRDSGRDRCLHESKGRAHPQVDPKLLNKLHEYFHEPNKKFFELVGRTFDWH	confirm the presence of N,2,3,6-HS products		
SEQ ID NO: 54: mutant of isoform 1 of the pig 3OST enzyme, SEQ ID NO: 28 mutations (protein, Amino acid sequence encoding for engineered arylsulfate-dependent 3-O-sulfotransferase variant 7) MGVAPNGSAQQLPQTIIIGVGHGGTRALLEMLSLHPDVAAAENEVHFFDWEEHYSHGLGWYLSQMPFSWPHQLTVEKTHSYFTSPKVPERVYSMNPSIRLLLILRDPSERVLSLGTHLFYVHMQKHKPYPSIEEFLVRDGRLNVDYTGLNRSLYHVHMQNWLRFFPLRHIHIVDGDRLIRDPFPEIQKVERFLKLSPQINASNFYFNKTKGFYCLRDSGRDRCLHESKGRAHPQVDPKLLNKLHEYFHEPNKKFFELVGRTFDWH	confirm the presence of N,2,3,6-HS products		
SEQ ID NO: 40: mutant of N-sulfotransferase domain of pig NDST carrying the SEQ ID NO: 12 mutations (protein, Amino acid sequence encoding for engineered arylsulfate-dependent N-sulfotransferase variant 14) MSEEKDPLWQDPCEDKRHKDIWSKEKTCDRFPKLLIIGPAKTGAWLLHHFLGLHPDLSSNYPSSETHSSIQFFNGHNYHKGIDWYMDFFPIPSNTTSDFYFETSANYFDSDVAPRRAAALLPKAKVLTILINPADRAYSWYQHQRAHDDPAALRYTFHEVITAGPDASLKLRALQNRCLVPGWYATHLERWLGAFHANQILVLDGKLLRTEPARVMDTVQKFLGVTNTIDYHKTLAFDPKKGFWCQLLEGGKTKCAHRGLGRKYPDMDPDSRAFLRDYYRDHNIELSKLLYKMGQTLPTWLREELQNTR		confirm the presence of N-sulfated polysaccharide products	
SEQ ID NO: 38: mutant of N-sulfotransferase domain of pig NDST carrying the SEQ ID NO: 8 mutations (protein, Amino acid sequence encoding for engineered arylsulfate-dependent N-sulfotransferase variant 12) MSEEKDPLWQDPCEDKRHKDIWSKEKTCDRFPKLLIIGPHGTGGHALYLFLGLHPDLSSNYPSSETFLSIQFFNGHNYHKGIDWYMDFFPIPSNTTSDFYFEHSGNYFDSDVAPRRAAALLPKAKVLTILINPADRAYRAYVWQRAHDDPAALRYTFHEVITAGPDASLKLRALQNRCLVPGWYATHLERWLGAFHANQILVLDGKLLRTEPARVMDTVQKFLGVTNTIDYHKTLAFDPKKGFWCQLLEGGKTKCLGRSLGSKYPDMDPDSRAFLRDYYRDHNIELSKLLYKMGQTLPTWLREELQNTR		confirm the presence of N-sulfated polysaccharide products	
SEQ ID NO: 28: engineered aryl sulfate-dependent 3OST enzyme, mutant of isoform 1 of the human 3OST enzyme (protein, Amino acid sequence encoding for engineered arylsulfate-dependent 3-O-sulfotransferase variant 3, engineered aryl sulfate-dependent 3OST enzyme, mutant of isoform 1 of the human 3OST enzyme) MGTASNGSTQQLPQTIIIGVGHGGTRALLEMLSLHPDVAAAENEVHFFDWEEHYSQGLGWYLTQMPFSSPHQLTVEKTHSYFTSPKVPERIHSMNPTIRLLLILRDPSERVLSLGTHLLYVHLQKHKPYPPIEDLLMRDGRLNLDYTGLNRSLYHAHMLNWLRFFPLGHIHIVDGDRLIRDPFPEIQKVERFLKLSPQINASNFYFNKTKGFYCLRDSGKDRCLHESKGRAHPQVDPKLLDKLHEYFHEPNKKFFKLVGRTFDWH			3OST activity with PNS ([1]; PNS as aryl sulfate compound): not active; abundance of 3-O sulfation in product [1]: higher abundance of 3-O sulfation
SEQ ID NO: 24: engineered aryl sulfate-dependent 3OST enzyme, mutant of isoform 1 of the human 3OST enzyme (protein, Amino acid sequence encoding for engineered arylsulfate-dependent 3-O-sulfotransferase variant 1, engineered aryl sulfate-dependent 3OST enzyme, mutant of isoform 1 of the human 3OST enzyme) MGTASNGSTQQLPQTIIIGVGHGGTRALLEMLSLHPDVAAAENEVHFFDWEEHYSQGLGWYLTQMPFSSPHQLTVEKTHSYFTSPKVPERIHSMNPTIRLLLILRDPSERVLSAYTHMLYNHLQKHKPYPPIEDLLMRDGRLNLDYVGLNRSLYHAHMLNWLRFFPLGHIHIVDGDRLIRDPFPEIQKVERFLKLSPQINASNFYFNKTKGFYCLRDSGKDRCLHESKGRAHPQVDPKLLDKLHEYFHEPNKKFFKLVGRTFDWH			abundance of 3-O sulfation in product [1]: higher abundance of 3-O sulfation
SEQ ID NO: 39: mutant of N-sulfotransferase domain of pig NDST carrying the SEQ ID NO: 10 mutations (protein, Amino acid sequence encoding for engineered arylsulfate-dependent N-sulfotransferase variant 13) MSEEKDPLWQDPCEDKRHKDIWSKEKTCDRFPKLLIIGPHKTGVHALYLFLGLHPDLSSNYPSSETGNHIGFFGGHNYHKGIDWYMDFFPIPSNTTSDFYFEKSAWYFDSDVAPRRAAALLPKAKVLTILINPADRAYSWYQHQRAHDDPAALRYTFHEVITAGPDASLKLRALQNRCLVPGWYATHLERWLGAFHANQILVLDGKLLRTEPARVMDTVQKFLGVTNTIDYHKTLAFDPKKGFWCQLLEGGKTKCLGRSVGRKYPDMDPDSRAFLRDYYRDHNIELSKLLYKMGQTLPTWLREELQNTR		confirm the presence of N-sulfated polysaccharide products	
